Each block holds one binder with its values, some of them ahead of it.
What was measured:
cynomolgus monkey CD38 [1] = biological target: T1, cynomolgus monkey CD38 (cynomolgus monkey, UniProt Q5VAN0 44-301, limits assumed); assay: ELISA, antigen-coated plate
T1 construct: also called Cyno CD38; cynoCD38
Experimental: (§1) Binding affinities to each target antigen by the CD38/CD28×CD3 T cell engagers were measured by ELISA. Briefly, each antigen was used to coat the 96-well Immuno Plate (Thermo Fisher Scientific) overnight at 4° C. using 200 ng/well in PBS (pH7.4) of each antigen. The coated plate was blocked using 5% skim milk+2% BSA in PBS for one hour at RT, followed by washing with PBS+0.25% Tween 20 three times (Aqua Max 400, Molecular Devices). Serial dilution of antibodies (trispecific and control Abs) were prepared and added onto the ELISA plates (100 μl/well in duplicate), incubated at room temperature (RT) for one hour, followed by washing 5 times with PBS+0.25% Tween 20. […] The reaction was terminated by adding 50 μl 1M H₂SO₄, and OD450 was measured using SpectraMax M5 (Molecular Devices) and analyzed using SoftMax Pro6.3 software (Molecular Devices). The final data was transferred to GraphPad Prism software (GraphPad Software, CA, USA), and plotted. EC50 was calculated using the same software.
(§2) The binding affinities of selected CD38/CD28sup×CD3mid_ENLQ DKTHT IgG4 FALA trispecific antibodies with alternative anti-CD38 binding domains for human CD3, human CD28, human CD38 and cynomolgus monkey CD38 were then determined by ELISA as described above.

human CD38 [2] = biological target: T2, human CD38 (human, UniProt P28907 43-300, limits assumed); assay: ELISA, antigen-coated plate
T2 construct: also called hCD38; huCD38
Experimental: as §1, §2

Human CD3 = biological target: T3, Human CD3 (human); assay: ELISA, antigen-coated plate
T3 chain: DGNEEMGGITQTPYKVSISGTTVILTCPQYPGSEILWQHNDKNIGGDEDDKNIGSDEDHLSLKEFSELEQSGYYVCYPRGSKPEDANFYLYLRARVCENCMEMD
Experimental: as §1, §2

Human CD28 = biological target: T4, Human CD28 (human, UniProt P10747 19-152, limits assumed); assay: ELISA, antigen-coated plate
T4 construct: also called hCD28
Experimental: as §1, §2

Human CD38-His = biological target: T5, Human CD38-His (human, UniProt P28907 43-300, limits assumed); assay: SPR (BIACORE 3000), capture format, 1:1 Langmuir model
T5 construct: Bought antigen; also called human CD38 (SPR antigen); not shown: His tag

[3] = biological target: T6, human CD38 on tumor cell lines NCI-H929 (CD38+/CD28+) and OCI-LY19 (CD38+/CD28-) (human, UniProt P28907 1-300); assay: cell-based or functional assay
[4] = biological target: T6, human CD38 on tumor cell lines NCI-H929 …; assay: cell-based or functional assay; remark: listed apart in the source
cynomolgus monkey CD38 [5] = biological target: T1, cynomolgus monkey CD38; assay: FACS
human CD38 [6] = biological target: T2, human CD38; assay: FACS
cynomolgus monkey CD38 [7] = biological target: T1, cynomolgus monkey CD38; assay: SPR
human CD38 [8] = biological target: T2, human CD38; assay: SPR
cynomolgus monkey CD38 [9] = biological target: T1, cynomolgus monkey CD38; assay: ELISA
human CD38 [10] = biological target: T2, human CD38; assay: ELISA

EC50 (cynomolgus monkey CD38 [1]): 1.63 nM
EC50 (human CD38 [2]): 0.984 nM
EC50 (Human CD3): 10.8 nM
EC50 (Human CD28): 0.825 nM
Kd (Human CD38-His): 5.57 nM
koff (Human CD38-His): 0.00546 s⁻¹
kon (Human CD38-His): 980000 M⁻¹ s⁻¹
B1: CD38hyb5739/CD28sup x CD3mid_ENLQ DKTHT IgG4 FALA (other)
light 1: DIVMTQTPLSLSVTPGQPASISCKSSQSLVHENLQTYLSWYLQKPGQSPQSLIYKVSNRFSGVPDRFSGSGSGTDFTLKISRVEAEDVGVYYCGQGTQYPFTFGSGTKVEIKDKTHTDIQMTQSPSSLSASVGDRVTITCQASQNIYVWLNWYQQKPGKAPKLLIYKASNLHTGVPSRFSGSGSGTDFTLTISSLQPEDIATYYCQQGQTYPYTFGQGTKLEIKDKTHTRTVAAPSVFIFPPSDEQLKSGTASVVCLLNNFYPREAKVQWKVDNALQSGNSQESVTEQDSKDSTYSLSSTLTLSKADYEKHKVYACEVTHQGLSSPVTKSFNRGEC
heavy 1: QVQLVQSGAEVVKPGASVKVSCKASGYTFTSYYIHWVRQAPGQGLEWIGSIYPGNVNTNYAQKFQGRATLTVDTSISTAYMELSRLRSDDTAVYYCTRSHYGLDWNFDVWGKGTTVTVSSDKTHTQVQLVESGGGVVQPGRSLRLSCAASGFTFTKAWMHWVRQAPGKQLEWVAQIKDKSNSYATYYADSVKGRFTISRDDSKNTLYLQMNSLRAEDTAVYYCRGVYYALSPFDYWGQGTLVTVSSDKTHTASTKGPSVFPLAPCSRSTSESTAALGCLVKDYFPEPVTVSWNSGALTSGVHTFPAVLQSSGLYSLSSVVTVPSSSLGTKTYTCNVDHKPSNTKVDKRVESKYGPPCPPCPAPEAAGGPSVFLFPPKPKDTLMISRTPEVTCVVVDVSQEDPEVQFNWYVDGVEVHNAKTKPREEQFNSTYRVVSVLTVLHQDWLNGKEYKCKVSNKGLPSSIEKTISKAKGQPREPQVCTLPPSQEEMTKNQVSLSCAVKGFYPSDIAVEWESNGQPENNYKTTPPVLDSDGSFFLVSKLTVDKSRWQEGNVFSCSVMHEALHNHYTQKSLSLSLG
heavy 2: QVQLQQSGPELVRPGTSVKVSCKASGYAFTTYLVEWIKQRPGQGLEWIGVINPGSGSTNYNEKFKGKATLTVDRSSTTAYMHLSGLTSDDSAVYFCARYAYGYWGQGTTLTVSSASTKGPSVFPLAPCSRSTSESTAALGCLVKDYFPEPVTVSWNSGALTSGVHTFPAVLQSSGLYSLSSVVTVPSSSLGTKTYTCNVDHKPSNTKVDKRVESKYGPPCPPCPAPEAAGGPSVFLFPPKPKDTLMISRTPEVTCVVVDVSQEDPEVQFNWYVDGVEVHNAKTKPREEQFNSTYRVVSVLTVLHQDWLNGKEYKCKVSNKGLPSSIEKTISKAKGQPREPQVYTLPPCQEEMTKNQVSLWCLVKGFYPSDIAVEWESNGQPENNYKTTPPVLDSDGSFFLYSKLTVDKSRWQEGNVFSCSVMHEALHNHYTQKSLSLSLG
light 2: DIVMTQSQKFMSASVGDRVSITCKASQNVGTAVAWYQQQPGHSPKQLIYSASNRYTGVPDRFTGSGAGTDFTLTISNIQSEDLADYFCQQYSTYPFTFGSGTKLEIKRTVAAPSVFIFPPSDEQLKSGTASVVCLLNNFYPREAKVQWKVDNALQSGNSQESVTEQDSKDSTYSLSSTLTLSKADYEKHKVYACEVTHQGLSSPVTKSFNRGEC
notes: Trispecific antibody; also called BP # 6′
EC50 of in vitro killing of OCI-LY19 (CD38+/CD28-) cells, With Dara [3]: 0.219 nM
EC50 of in vitro killing of OCI-LY19 (CD38+/CD28-) cells, With human IgG1 [3]: 0.061 nM
EC50 of in vitro killing of NCI-H929 (CD38+/CD28+) cells, With Dara [4]: 0.00911 nM
EC50 of in vitro killing of NCI-H929 (CD38+/CD28+) cells, With human IgG1 [4]: 0.00274 nM

EC50 (cynomolgus monkey CD38 [5]): 288 nM
EC50 (human CD38 [6]): 100 nM
Kd (cynomolgus monkey CD38 [7]): 6.12 nM
Kd (human CD38 [8]): 0.365 nM
EC50 (cynomolgus monkey CD38 [9]): 0.08 nM
EC50 (human CD38 [10]): 0.09 nM
B2: AntiCD38_hhy_992 (antibody, V domains shown)
VH: QVQLVQSGAEVKKPGASVKVSCKVSGYTLTEFSIHWVRQAPGQGLEWMGGFDPEDGETIYAQKFQGRVIMTEDTSTDTAYMEMNSLRSEDTAIYYCTTGRFFDWFWGQGTLVTVSS
VL: EIILTQSPAILSLSPGERATLSCRASQSVISRFLSWYQVKPGLAPRLLIYGASTRATGIPVRFSGSGSGTDFSLTISSLQPEDCAVYYCQQDSNLPITFGQGTRLEIK

EC50 (cynomolgus monkey CD38 [5]): 15 nM
EC50 (human CD38 [6]): 38 nM
Kd (cynomolgus monkey CD38 [7]): 26 nM
Kd (human CD38 [8]): 40 nM
EC50 (cynomolgus monkey CD38 [9]): 0.86 nM
EC50 (human CD38 [10]): 1.4 nM
B3: AntiCD38_hhy_1195 (antibody, V domains shown)
VH: QVQLVESGGGVVQPGRSLRLSCAASGFTFSSYGMYWVRQAPGKGLEWVAVIWYDGSNKYYADSVKGRFTISRDNSKNTLYLQMNSLRAEDTAVYHCARDPGLRYFDGGMDVWGQGTTVTVSS
VL: DIQLTQSPSFLSASVGDRVTITCRASQGISSYLAWYQQKPGKAPKLLIFAASTLHSGVPSRFSGSGSGTEFTLTISSLQPEDFATYYCQQLNSFPYTFGQGTKLEIK

EC50 (cynomolgus monkey CD38 [5]): 0.7 nM
EC50 (human CD38 [6]): 0.4 nM
EC50 (cynomolgus monkey CD38 [9]): 0.13 nM
EC50 (human CD38 [10]): 0.11 nM
B4: AntiCD38_hyb_6284 (antibody, V domains shown)
VH: QVQLLQSGAELVRPGVSVKISCTGSGYSFTNYAVHWVKQSHVKSLEWIGVISPYYGDTTYNQKFTGKATMTVDKSSSTAYMELARLTSEDSAIYFCARRFEGFYYSMDYWGQGTSVTVSS
VL: DVVMIQTPLSLPVSLGDQASISCRPSQSLVHSNGNTYLNWYLQRPGQSPKLLIYKVSKRFSGVPDRFSGSGSGTDFTLKISRVEAEDLGVYLCSQSTHVPLTFGSGTQLEIK

EC50 (cynomolgus monkey CD38 [5]): 0.5 nM
EC50 (human CD38 [6]): 0.3 nM
EC50 (cynomolgus monkey CD38 [9]): 0.09 nM
EC50 (human CD38 [10]): 0.12 nM
B5: AntiCD38_hyb_5739 (antibody, V domains shown)
VH: QVQLQQSGPELVRPGTSVKVSCKASGYAFTTYLVEWIKQRPGQGLEWIGVINPGSGSTNYNEKFKGKATLTVDRSSTTAYMHLSGLTSDDSAVYFCARYAYGYWGQGTTLTVSS
VL: DIVMTQSQKFMSASVGDRVSITCKASQNVGTAVAWYQQQPGHSPKQLIYSASNRYTGVPDRFTGSGAGTDFTLTISNIQSEDLADYFCQQYSTYPFTFGSGTKLEIK

— patent US20200399369A1 (Sanofi, published 2020)
